B1: Subtilisin-chymotrypsin inhibitor-2A, P01053 (parent)
chain: MSSVEKKPEGVNTGAGDRHNLKTEWPELVGKSVEEAKKVILQDKPEAQIIVLPVGTIVTMEYRIDRVRLFVDKLDNIAQVPRVG

The variants in this data set derive from B1. Conditions: Hordeum vulgare; pH 6.25; 25 °C; GdnHCl; Fluorescence; MES 50 mM; reversible: yes; structure 2CI2; whole UniProt chain shown.

Take MSSVEKKPEGVNTGAGDRHNLKTEWPELVGKSVEEAKKVILQDKPEAQIIVLPVGTIVTMEYRIARVRLFVDKLDNIAQVPRVG [D65A]: the “ddG of mutation (higher = less stable)” value is 1.02 kcal/mol, the denaturant m value stood at 1.83 kcal/mol/M, the “denaturant midpoint (higher = more stable)” value (shortened to “denaturant midpoint”) worked out at 3.59 M and the unfolding free energy is 6.58 kcal/mol.
For MSSVEKKPEGVNTGAGDRHNLKTEWPELVGKSVEEAKKVILQDKPEAQIIVLPVGTIVTMEYRIDRVRLFVDNLDNIAQVPRVG [K73N], in that order: 1.21 kcal/mol, 1.6 kcal/mol/M, 4 M and 6.39 kcal/mol.
On to MSSVEKKPEGVNTGAGDRHNLKTEWPELVGKSVEEAKKVILQDKPEAQIIVLPVGTIVTMEYAIARVRLFVDKLDNIAQVPRVG [R63A D65A], for which the “ddG of mutation (higher = less stable)” value came out at 2.46 kcal/mol, the denaturant m value was found to be 1.53 kcal/mol/M, the “denaturant midpoint” value came out at 3.37 M and the unfolding free energy was determined as 5.14 kcal/mol.
For the variant MSSVEKKPEGVNTGAGDRHNLKTEWAELVGKSVEEAKKVILQDKPEAQIIVLPVGTIVTMEYRIDRVRLFVDKLDNIAQVPRVG [P26A], the denaturant m value came to 3.46 kcal/mol/M and the “denaturant midpoint” value was 3.19 M.
As to MSSVEKKPEGVNTGAGDRHNLKTEWPELVGKSVEEAKKVILQDKPEAQIIVLPVGTIVTMEYAIDRVRLFVDKLDNIAQVPRVG [R63A], the “ddG of mutation (higher = less stable)” value is 1.02 kcal/mol, the denaturant m value amounted to 1.78 kcal/mol/M, the “denaturant midpoint” value was determined as 3.7 M and the unfolding free energy was determined as 6.58 kcal/mol.
For MSSVEKKPEGVNTGAGDRHNLKTEWPELVGKSVEEAKKVILQDKPEAQIIVLPVGTIVTMAYRIDRVRLFVDKLDNIAQVPRVG [E61A] the same measures were 1.12 kcal/mol, 1.78 kcal/mol/M, 3.64 M and 6.48 kcal/mol.
For MSSVEKKPEGVNTGAGDRHNLKTEWPELVGKSVEEAKKVILQDKPEAQIIVLPVGTIVTMEYRIDRVRLFVDKLDNIAQVARVG [P81A] the same measures were 3.5 kcal/mol, 1.8 kcal/mol/M, 2.28 M and 4.1 kcal/mol.
Consider MSSVEKKPEGVNTGAGDRHNLKTEWPELVGKSVEEAKKVILQDKPEAQIIVLPVGTIVTMEYRIDRVRLFVAKLDNIAQVPRVG [D72A], for which the “ddG of mutation (higher = less stable)” value was 3.14 kcal/mol, the denaturant m value stood at 1.99 kcal/mol/M, the “denaturant midpoint” value stood at 2.24 M and the unfolding free energy is 4.46 kcal/mol.
In the case of MSSVEKKPEGVNTGAGDRHNLKTEWPELVGKSVEEAKKVILQDKPEAQIIVLPVGTIVTMEYRIDRVRLAVDKLDNIAQVPRVG [F70A], the “ddG of mutation (higher = less stable)” value came to 3.21 kcal/mol, the denaturant m value is 2.17 kcal/mol/M, the “denaturant midpoint” value was determined as 2.02 M and the unfolding free energy came to 4.39 kcal/mol.
For MSSVEKKPEGVNTGAGDRHNLKTEWPELVGKSVEEAKKVILQDKPEAQIIVLPVGTIVTMEYRIDRVRLLVDKLDNIAQVPRVG [F70L] the same measures were 1.92 kcal/mol, 1.95 kcal/mol/M, 2.91 M and 5.68 kcal/mol.
On to MSSVEKKPEGVNTGAGDRHNLKTEWPELVGKSVEEAKKVILQDKPEAQIIVLPVGTIVTMEYRIDRVRLVVDKLDNIAQVPRVG [F70V], for which the “ddG of mutation (higher = less stable)” value worked out at 1.41 kcal/mol, the denaturant m value worked out at 2.24 kcal/mol/M, the “denaturant midpoint” value came out at 2.77 M and the unfolding free energy worked out at 6.19 kcal/mol.
